Among the data in the Human Domainome abundance scans (Beltran et al. 2025) are abundance fitness values, retold here.

± gives the uncertainty stated by the source.

B1: POU domain, class 3, transcription factor 3, residues 320 to 388; numbered along this chain, P20264 (parent)
chain: DDLEQFAKQFKQRRIKLGFTQADVGLALGTLYGNVFSQTTICRFEALQLSFKNMCKLKPLLNKWLEEAD

The data set covers variants of B1. The data set can be described thus: abundance fitness (aPCA) (normalised: wild type 0, dead -1); higher = more abundant; growth selection in yeast, the domain comes from the species named. Conditions: Homo sapiens.
For the variant DDLEQFAKQFKQRAIKLGFTQADVGLALGTLYGNVFSQTTICRFEALQLSFKNMCKLKPLLNKWLEEAD [R14A], the abundance fitness is -0.823 ± 0.2. Then DDLEQFAKQFKQREIKLGFTQADVGLALGTLYGNVFSQTTICRFEALQLSFKNMCKLKPLLNKWLEEAD [R14E], with -0.859 ± 0.23. Then DDLEQFAKQFKQRFIKLGFTQADVGLALGTLYGNVFSQTTICRFEALQLSFKNMCKLKPLLNKWLEEAD [R14F], with -0.829 ± 0.37; and DDLEQFAKQFKQRCIKLGFTQADVGLALGTLYGNVFSQTTICRFEALQLSFKNMCKLKPLLNKWLEEAD [R14C], with -0.681 ± 0.23. Then DDLEQFAKQFKDRRIKLGFTQADVGLALGTLYGNVFSQTTICRFEALQLSFKNMCKLKPLLNKWLEEAD [Q12D], with -0.23 ± 0.21; and DDLEQFAKQFKGRRIKLGFTQADVGLALGTLYGNVFSQTTICRFEALQLSFKNMCKLKPLLNKWLEEAD [Q12G], with -0.636 ± 0.075; and DDLEQFAKQFKCRRIKLGFTQADVGLALGTLYGNVFSQTTICRFEALQLSFKNMCKLKPLLNKWLEEAD [Q12C], with -0.438 ± 0.16. DDLEQFAKQFKMRRIKLGFTQADVGLALGTLYGNVFSQTTICRFEALQLSFKNMCKLKPLLNKWLEEAD [Q12M]: the abundance fitness is -0.409 ± 0.19. The figure for DDLEQFAKQFKYRRIKLGFTQADVGLALGTLYGNVFSQTTICRFEALQLSFKNMCKLKPLLNKWLEEAD [Q12Y] is -0.176 ± 0.17; for DDLEQFAKQFKFRRIKLGFTQADVGLALGTLYGNVFSQTTICRFEALQLSFKNMCKLKPLLNKWLEEAD [Q12F] it is -0.654 ± 0.27. Then DDLEQFAKQFKSRRIKLGFTQADVGLALGTLYGNVFSQTTICRFEALQLSFKNMCKLKPLLNKWLEEAD [Q12S], with -0.143 ± 0.1; and DDLEQFAKQFKERRIKLGFTQADVGLALGTLYGNVFSQTTICRFEALQLSFKNMCKLKPLLNKWLEEAD [Q12E], with -0.044 ± 0.13.

With DDLEQFAKQFKRRRIKLGFTQADVGLALGTLYGNVFSQTTICRFEALQLSFKNMCKLKPLLNKWLEEAD [Q12R], the abundance fitness was -0.124 ± 0.064. The figure for DDLEQFAKQFKWRRIKLGFTQADVGLALGTLYGNVFSQTTICRFEALQLSFKNMCKLKPLLNKWLEEAD [Q12W] is -0.146 ± 0.15; for DDLEQFAKQFKKRRIKLGFTQADVGLALGTLYGNVFSQTTICRFEALQLSFKNMCKLKPLLNKWLEEAD [Q12K] it is -0.276 ± 0.11; for DDLEQFAKQFKTRRIKLGFTQADVGLALGTLYGNVFSQTTICRFEALQLSFKNMCKLKPLLNKWLEEAD [Q12T] it is -0.283 ± 0.11. On to DDLEQFAKQFKLRRIKLGFTQADVGLALGTLYGNVFSQTTICRFEALQLSFKNMCKLKPLLNKWLEEAD [Q12L], for which the abundance fitness is -0.201 ± 0.07. The figure for DDLEQFAKQFKPRRIKLGFTQADVGLALGTLYGNVFSQTTICRFEALQLSFKNMCKLKPLLNKWLEEAD [Q12P] is -0.694 ± 0.21. Turning to DDLEQFAKQFKVRRIKLGFTQADVGLALGTLYGNVFSQTTICRFEALQLSFKNMCKLKPLLNKWLEEAD [Q12V], the abundance fitness was -0.265 ± 0.085. Regarding DDLEQFAKQFKARRIKLGFTQADVGLALGTLYGNVFSQTTICRFEALQLSFKNMCKLKPLLNKWLEEAD [Q12A], the abundance fitness was -0.1 ± 0.085.

Regarding DDLEQFAKQFKIRRIKLGFTQADVGLALGTLYGNVFSQTTICRFEALQLSFKNMCKLKPLLNKWLEEAD [Q12I], the abundance fitness was -0.594 ± 0.48. For DDLEQFAKQAKQRRIKLGFTQADVGLALGTLYGNVFSQTTICRFEALQLSFKNMCKLKPLLNKWLEEAD [F10A], the abundance fitness was -0.776 ± 0.24.

Regarding DDLEQFAKQCKQRRIKLGFTQADVGLALGTLYGNVFSQTTICRFEALQLSFKNMCKLKPLLNKWLEEAD [F10C], the abundance fitness was -0.338 ± 0.25. As to DDLEQFAKQNKQRRIKLGFTQADVGLALGTLYGNVFSQTTICRFEALQLSFKNMCKLKPLLNKWLEEAD [F10N], the abundance fitness was -0.705 ± 0.48. Then DDLEQFAKQSKQRRIKLGFTQADVGLALGTLYGNVFSQTTICRFEALQLSFKNMCKLKPLLNKWLEEAD [F10S], with -0.846 ± 0.28; and DDLEQFAKQWKQRRIKLGFTQADVGLALGTLYGNVFSQTTICRFEALQLSFKNMCKLKPLLNKWLEEAD [F10W], with -0.636 ± 0.39. The figure for DDLEQFAKQGKQRRIKLGFTQADVGLALGTLYGNVFSQTTICRFEALQLSFKNMCKLKPLLNKWLEEAD [F10G] is -0.288 ± 0.12; for DDLEQFAKQTKQRRIKLGFTQADVGLALGTLYGNVFSQTTICRFEALQLSFKNMCKLKPLLNKWLEEAD [F10T] it is -0.488 ± 0.17; for DDLEQFAKQYKQRRIKLGFTQADVGLALGTLYGNVFSQTTICRFEALQLSFKNMCKLKPLLNKWLEEAD [F10Y] it is -0.631 ± 0.36. The figure for DDLEQFAKQMKQRRIKLGFTQADVGLALGTLYGNVFSQTTICRFEALQLSFKNMCKLKPLLNKWLEEAD [F10M] is -0.631 ± 0.33; for DDLEQFAKQRKQRRIKLGFTQADVGLALGTLYGNVFSQTTICRFEALQLSFKNMCKLKPLLNKWLEEAD [F10R] it is -0.543 ± 0.16; for DDLEQFAKQPKQRRIKLGFTQADVGLALGTLYGNVFSQTTICRFEALQLSFKNMCKLKPLLNKWLEEAD [F10P] it is -0.896 ± 0.25. On to DDLEQFAKQKKQRRIKLGFTQADVGLALGTLYGNVFSQTTICRFEALQLSFKNMCKLKPLLNKWLEEAD [F10K], for which the abundance fitness was -0.365 ± 0.36. The figure for DDLEQFAKQQKQRRIKLGFTQADVGLALGTLYGNVFSQTTICRFEALQLSFKNMCKLKPLLNKWLEEAD [F10Q] is -0.698 ± 0.38; for DDLEQFAKQVKQRRIKLGFTQADVGLALGTLYGNVFSQTTICRFEALQLSFKNMCKLKPLLNKWLEEAD [F10V] it is -0.885 ± 0.2; for DDLEQFAKQFLQRRIKLGFTQADVGLALGTLYGNVFSQTTICRFEALQLSFKNMCKLKPLLNKWLEEAD [K11L] it is -0.944 ± 0.17. As to DDLEQFAKQFWQRRIKLGFTQADVGLALGTLYGNVFSQTTICRFEALQLSFKNMCKLKPLLNKWLEEAD [K11W], the abundance fitness was -0.753 ± 0.22. In the case of DDLEQFAKQFAQRRIKLGFTQADVGLALGTLYGNVFSQTTICRFEALQLSFKNMCKLKPLLNKWLEEAD [K11A], the abundance fitness is -0.298 ± 0.14. Then DDLEQFAKQFSQRRIKLGFTQADVGLALGTLYGNVFSQTTICRFEALQLSFKNMCKLKPLLNKWLEEAD [K11S], with -0.541 ± 0.14.
